Source: US20040142357A1 (BETH ISRAEL DEACONESS MEDICAL CENTER, published 2004)
One block for each binder: values may come before it.

Tests used:
[1] = target: T1, GST (glutathione-S-transferase alone, on glutathione beads) (UniProt P08515 1-218 = GST); assay: GST pulldown from HeLa lysates, immunoblot with anti-GFP
T1 construct: Control protein; also called GST tag
Procedure: (§1) GST pulldown, immunoprecipitation and immunoblotting analysis were performed as described (Lu et al., 1999; Shen et al., 1998). Briefly, relevant proteins were expressed in HeLa or HT1080 cells by transient transfection, or translated in vitro using the TNT coupled transcription/translation kit (Promega) in the presence of [³⁵S]-Met, followed by lysis or dilution in a buffer containing 50 mM HEPES, pH 7.5, 150 mM NaCl, 100 mM NaF, 1 mM sodium orthovanadate, 10% glycerol, 1% Triton X100, 10 μg/ml aprotinin, 10 μg/ml leupeptin, 50 μg/ml phenylmethylsulfonyl fluoride and 1 mM DTT. The cellular supernatants were incubated with 1 μM GST or GST fusion proteins for 1 hr at 4° C. and 15 μl of glutathione agarose beads were then added, followed by further incubation for 2 h at 4° C. The precipitated proteins were washed 4 times in the same buffer and subjected to immunoblotting analysis. Other antibodies used for immunoprecipitation and immunoblotting analysis include anti-Pin2/TRF1 (Shen et al., 1997) and anti-hTERT antibodies (Novus). Membranes containing RNAs isolated from different human tissues (Clontech) were hybridized to the C-terminal coding sequence of PinX1 and then stripped, followed by reprobing with the house-keeping gene GAPDH for loading control.
(§2) To map the region in PinX1 that interacts with Pin2, we expressed different PinX1 fragments in HeLa cells as GFP fusion proteins (FIG. 3E), and then subjected them to GST pulldown experiments with GST-Pin2.

GST-Pin2 = target: T2, GST-Pin2 (human, UniProt P54274 2-439); assay: as above
T2 construct: Produced as described in Shen et al., 1997; also called GST-Pin2 beads (Pin2); not shown: glutathione-S-transferase (GST) tag
T2 sequence: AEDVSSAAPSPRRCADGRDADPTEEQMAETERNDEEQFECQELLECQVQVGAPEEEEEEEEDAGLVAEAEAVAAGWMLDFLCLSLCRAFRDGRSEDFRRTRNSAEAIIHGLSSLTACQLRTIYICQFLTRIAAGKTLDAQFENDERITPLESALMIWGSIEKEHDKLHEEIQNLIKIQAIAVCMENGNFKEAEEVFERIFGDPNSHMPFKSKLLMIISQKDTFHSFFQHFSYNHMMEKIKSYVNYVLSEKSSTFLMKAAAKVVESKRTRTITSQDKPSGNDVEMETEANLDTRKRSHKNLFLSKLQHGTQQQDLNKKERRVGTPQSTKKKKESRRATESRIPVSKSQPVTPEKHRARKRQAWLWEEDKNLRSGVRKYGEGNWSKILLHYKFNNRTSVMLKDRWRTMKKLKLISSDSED
Procedure: as §1, §2

[2] = target: telomerase of HT1080 cells (telomerase-containing fraction, or cellular telomerase in stable HT1080 lines) (human, UniProt O14746 1-1132, limits assumed); assay: cell-based or functional assay
Chain of telomerase of HT1080 cells (telomerase-containing fraction, or cellular telomerase in stable HT1080 lines) (O14746 whole entry): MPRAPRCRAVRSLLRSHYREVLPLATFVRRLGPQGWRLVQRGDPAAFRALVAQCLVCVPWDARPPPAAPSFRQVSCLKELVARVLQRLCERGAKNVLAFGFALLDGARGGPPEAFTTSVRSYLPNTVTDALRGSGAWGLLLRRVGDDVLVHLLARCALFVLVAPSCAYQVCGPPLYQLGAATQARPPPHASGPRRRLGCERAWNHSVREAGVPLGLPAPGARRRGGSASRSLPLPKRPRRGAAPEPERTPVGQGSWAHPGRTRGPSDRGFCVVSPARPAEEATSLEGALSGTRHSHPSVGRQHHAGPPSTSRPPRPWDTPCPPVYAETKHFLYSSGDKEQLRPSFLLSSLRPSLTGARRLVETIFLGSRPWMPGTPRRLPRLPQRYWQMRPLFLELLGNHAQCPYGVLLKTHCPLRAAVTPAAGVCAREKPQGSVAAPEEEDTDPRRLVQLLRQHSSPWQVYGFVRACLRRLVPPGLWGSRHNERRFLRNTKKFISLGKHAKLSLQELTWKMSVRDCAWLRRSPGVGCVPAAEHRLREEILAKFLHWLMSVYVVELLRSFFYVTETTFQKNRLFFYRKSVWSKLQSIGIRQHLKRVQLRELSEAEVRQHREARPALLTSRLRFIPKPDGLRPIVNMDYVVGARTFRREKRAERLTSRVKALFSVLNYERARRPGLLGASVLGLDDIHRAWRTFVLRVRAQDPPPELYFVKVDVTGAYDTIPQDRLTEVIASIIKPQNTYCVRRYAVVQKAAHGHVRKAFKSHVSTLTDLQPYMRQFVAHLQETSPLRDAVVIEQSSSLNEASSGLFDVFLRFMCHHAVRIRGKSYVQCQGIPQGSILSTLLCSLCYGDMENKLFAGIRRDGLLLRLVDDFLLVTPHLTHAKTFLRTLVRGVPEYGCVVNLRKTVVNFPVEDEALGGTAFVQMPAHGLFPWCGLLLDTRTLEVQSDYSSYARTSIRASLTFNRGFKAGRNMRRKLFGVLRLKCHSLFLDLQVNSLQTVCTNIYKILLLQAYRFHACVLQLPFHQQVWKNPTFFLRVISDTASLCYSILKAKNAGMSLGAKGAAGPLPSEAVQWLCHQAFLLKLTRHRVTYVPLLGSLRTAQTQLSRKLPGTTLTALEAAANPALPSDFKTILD

[3] = target: T1, GST (glutathione-S-transferase alone, …); assay: GST pulldown from HeLa lysates, immunoblot with anti-HA
Procedure: as §1, with “control. […]” for “control.”

T1 sequence (P08515 whole entry): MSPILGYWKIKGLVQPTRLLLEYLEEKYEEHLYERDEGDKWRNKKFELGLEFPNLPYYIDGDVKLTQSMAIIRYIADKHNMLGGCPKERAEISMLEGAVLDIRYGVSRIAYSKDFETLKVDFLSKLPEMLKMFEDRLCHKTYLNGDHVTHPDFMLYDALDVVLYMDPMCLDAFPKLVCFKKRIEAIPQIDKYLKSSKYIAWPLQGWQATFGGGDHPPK

- binding result [1]: no binding (tested: 1 µM)
B1: GFP fusion of the PinX1 C-terminal 142-328 amino acid fragment (other)
chain: DLDCIFGKRQSKKTPEGDASPSTPEENETTTTSAFTIQEYFAKPVAALKNKPQVPVPGSDISETQVERKRGKKRNKEATGKDVESYLQPKAKRHTEGKPERAEAQERVAKKKCAPAEKQLRGPCWDQSSKASAQDAGDHVQPPEGRDFTLKPKKRRGKKKLQKPVEIAEDATLEETLVKKKKKKDSK
notes: Expressed in HeLa cells; not shown: GFP fusion partner

- binding result [1]: no binding (tested: 1 µM)
- binding result (GST-Pin2): no binding (tested: 1 µM)
B2: GFP fusion of the N-terminal 142 amino acid fragment of PinX1 (other)
chain: MSMLAERRRKQKWAVDPQNTAWSNDDSKFGQRMLEKMGWSKGKGLGAQEQGATDHIKVQVKNNHLGLGATINNEDNWIAHQDDFNQLLAELNTCHGQETTDSSDKKEKKSFSLEEKSKISKNRVHYMKFTKGKDLSSRSKTD
notes: Expressed in HeLa cells; also called GFP-PinX1-N; PinX1-N; not shown: GFP fusion partner

- IC50 of inhibition of telomerase activity in vitro (TRAP assay) [2]: ~50 nM
B3: GST-PinX1-C (GST fusion of the C-terminal 74 amino acid fragment of PinX1, the telomerase inhibitory domain TID) (other, not shown: a dimerising Fc or GST)
chain: CAPAEKQLRGPCWDQSSKASAQDAGDHVQPPEGRDFTLKPKKRRGKKKLQKPVEIAEDATLEETLVKKKKKKDSK

- binding result [1]: no binding (tested: 1 µM)
B4: GFP fusion of the PinX1 254-328 amino acid fragment (other)
chain: CAPAEKQLRGPCWDQSSKASAQDAGDHVQPPEGRDFTLKPKKRRGKKKLQKPVEIAEDATLEETLVKKKKKKDSK
notes: Expressed in HeLa cells; also called GFP-PinX1-C; C-terminal 74 amino acid fragment; not shown: GFP fusion partner

- IC50 of inhibition of telomerase activity in vitro (TRAP assay) [2]: ~50 nM
B5: GST-PinX1 (N-terminal GST fusion of full length PinX1) (other, not shown: a dimerising Fc or GST)
chain: MSMLAERRRKQKWAVDPQNTAWSNDDSKFGQRMLEKMGWSKGKGLGAQEQGATDHIKVQVKNNHLGLGATINNEDNWIAHQDDFNQLLAELNTCHGQETTDSSDKKEKKSFSLEEKSKISKNRVHYMKFTKGKDLSSRSKTDLDCIFGKRQSKKTPEGDASPSTPEENETTTTSAFTIQEYFAKPVAALKNKPQVPVPGSDISETQVERKRGKKRNKEATGKDVESYLQPKAKRHTEGKPERAEAQERVAKKKCAPAEKQLRGPCWDQSSKASAQDAGDHVQPPEGRDFTLKPKKRRGKKKLQKPVEIAEDATLEETLVKKKKKKDSK

- binding result [3]: no binding (tested: 1 µM)
- fold decrease in telomerase activity in stable HT1080 cells (TRAP assay) [2]: ~5 fold
B6: HA-PinX1 (PinX1 with an N-terminal HA epitope tag) (other, not shown: small tags and cut ends)
chain: MSMLAERRRKQKWAVDPQNTAWSNDDSKFGQRMLEKMGWSKGKGLGAQEQGATDHIKVQVKNNHLGLGATINNEDNWIAHQDDFNQLLAELNTCHGQETTDSSDKKEKKSFSLEEKSKISKNRVHYMKFTKGKDLSSRSKTDLDCIFGKRQSKKTPEGDASPSTPEENETTTTSAFTIQEYFAKPVAALKNKPQVPVPGSDISETQVERKRGKKRNKEATGKDVESYLQPKAKRHTEGKPERAEAQERVAKKKCAPAEKQLRGPCWDQSSKASAQDAGDHVQPPEGRDFTLKPKKRRGKKKLQKPVEIAEDATLEETLVKKKKKKDSK
notes: Expressed in HeLa or HT1080 cells; also called transfected PinX1 protein; 50 kDa HA-PinX1 protein

- binding result [1]: no binding (tested: 1 µM)
B7: GFP-PinX1 (full length PinX1 as a GFP fusion protein) (other)
chain: MSMLAERRRKQKWAVDPQNTAWSNDDSKFGQRMLEKMGWSKGKGLGAQEQGATDHIKVQVKNNHLGLGATINNEDNWIAHQDDFNQLLAELNTCHGQETTDSSDKKEKKSFSLEEKSKISKNRVHYMKFTKGKDLSSRSKTDLDCIFGKRQSKKTPEGDASPSTPEENETTTTSAFTIQEYFAKPVAALKNKPQVPVPGSDISETQVERKRGKKRNKEATGKDVESYLQPKAKRHTEGKPERAEAQERVAKKKCAPAEKQLRGPCWDQSSKASAQDAGDHVQPPEGRDFTLKPKKRRGKKKLQKPVEIAEDATLEETLVKKKKKKDSK
notes: as for B1
